# Substitutions are numbered along the chain they refer to. Numbered stars: 1 amine (or outer) side, 2 acyl side, 3 side chain; on linkers, the order of the positions; unused ones are H or OH. Bridge positions count the residues as written; N and C are the ends. Square brackets hold non-standard residues; d marks the D form. * marks the point of attachment. thioacetal = thioacetal linkage between two cysteines (intrachain bond at the bracketed Cys); C20 diacid = O=C(O)CCCCCCCCCCCCCCCCCCC(=O)*; γGlu = O=C(O)[C@H](CCC(=O)[*:2])N[*:1]; βAla = NCCC(=O)O
# T1: rat NPRA (rat, UniProt P18910 29-1057)
# T1 sequence (looked up): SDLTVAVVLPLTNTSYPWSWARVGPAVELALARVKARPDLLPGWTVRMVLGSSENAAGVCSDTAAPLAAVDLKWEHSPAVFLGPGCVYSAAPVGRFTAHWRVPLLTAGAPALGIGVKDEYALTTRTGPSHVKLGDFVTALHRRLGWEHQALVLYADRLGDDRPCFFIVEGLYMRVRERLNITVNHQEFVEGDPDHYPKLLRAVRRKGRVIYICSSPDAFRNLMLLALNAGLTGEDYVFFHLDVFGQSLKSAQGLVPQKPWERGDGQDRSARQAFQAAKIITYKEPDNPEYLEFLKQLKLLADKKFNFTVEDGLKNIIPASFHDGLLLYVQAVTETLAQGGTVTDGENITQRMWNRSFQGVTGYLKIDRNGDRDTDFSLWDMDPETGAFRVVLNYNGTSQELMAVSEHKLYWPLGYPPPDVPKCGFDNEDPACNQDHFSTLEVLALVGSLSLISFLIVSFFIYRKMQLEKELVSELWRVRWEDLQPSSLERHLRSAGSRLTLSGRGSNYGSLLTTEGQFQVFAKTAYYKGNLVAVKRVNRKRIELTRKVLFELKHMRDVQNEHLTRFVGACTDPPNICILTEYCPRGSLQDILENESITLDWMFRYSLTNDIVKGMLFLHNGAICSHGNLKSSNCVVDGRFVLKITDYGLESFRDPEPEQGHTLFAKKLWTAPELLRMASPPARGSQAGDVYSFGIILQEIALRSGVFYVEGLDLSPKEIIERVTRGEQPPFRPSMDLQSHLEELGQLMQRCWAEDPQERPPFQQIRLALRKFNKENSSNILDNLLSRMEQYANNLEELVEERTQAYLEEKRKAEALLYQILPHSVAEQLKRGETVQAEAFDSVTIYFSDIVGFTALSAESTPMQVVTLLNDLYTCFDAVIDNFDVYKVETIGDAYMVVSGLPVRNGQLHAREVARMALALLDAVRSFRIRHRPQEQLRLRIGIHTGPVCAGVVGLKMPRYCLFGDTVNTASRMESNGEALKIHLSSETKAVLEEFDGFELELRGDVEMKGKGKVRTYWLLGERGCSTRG
# T2: human NPRA (human, UniProt P16066 33-1061)
# T2 sequence (looked up): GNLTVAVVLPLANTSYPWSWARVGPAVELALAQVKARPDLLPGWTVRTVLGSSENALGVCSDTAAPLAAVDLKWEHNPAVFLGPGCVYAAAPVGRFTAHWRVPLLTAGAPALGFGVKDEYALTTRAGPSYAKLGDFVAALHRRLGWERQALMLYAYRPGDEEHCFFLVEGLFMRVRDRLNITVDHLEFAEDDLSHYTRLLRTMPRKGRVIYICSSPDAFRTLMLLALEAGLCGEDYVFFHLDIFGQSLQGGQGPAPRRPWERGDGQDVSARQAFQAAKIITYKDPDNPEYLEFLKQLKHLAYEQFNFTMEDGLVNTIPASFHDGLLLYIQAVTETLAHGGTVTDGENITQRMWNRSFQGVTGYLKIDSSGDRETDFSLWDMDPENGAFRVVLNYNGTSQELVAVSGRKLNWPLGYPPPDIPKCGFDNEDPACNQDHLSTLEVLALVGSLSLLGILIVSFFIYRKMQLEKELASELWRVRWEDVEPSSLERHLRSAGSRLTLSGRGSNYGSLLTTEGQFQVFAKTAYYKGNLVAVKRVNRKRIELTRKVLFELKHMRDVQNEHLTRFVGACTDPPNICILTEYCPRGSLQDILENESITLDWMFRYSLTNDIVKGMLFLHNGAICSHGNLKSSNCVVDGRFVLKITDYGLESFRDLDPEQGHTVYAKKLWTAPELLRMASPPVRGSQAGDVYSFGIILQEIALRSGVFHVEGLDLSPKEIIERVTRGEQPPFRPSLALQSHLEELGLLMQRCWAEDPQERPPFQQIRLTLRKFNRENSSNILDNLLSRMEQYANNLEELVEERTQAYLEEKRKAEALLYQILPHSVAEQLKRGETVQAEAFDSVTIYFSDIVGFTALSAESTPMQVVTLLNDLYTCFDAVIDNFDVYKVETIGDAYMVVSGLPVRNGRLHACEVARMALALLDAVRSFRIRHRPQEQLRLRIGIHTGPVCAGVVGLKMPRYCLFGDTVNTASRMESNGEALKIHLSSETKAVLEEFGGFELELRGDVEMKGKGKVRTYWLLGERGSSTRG
# B1: HOOC-(CH2)18-CO-(γGlu)-EKEKEKG-(AEEA)6-EKPRSS[CFGKRIDRIGHYSGLGC]PSFRHSGSPSSGAPPPSG-NH2 (peptide)
# peptide: EKPRSSCFGKRIDRIGHYSGLGCPSFRHSGSPSSGAPPPSG
# modifications: N-terminus acylated with HOOC-(CH2)18-CO-(γGlu)-; (AEEA)6 after EKEKEKG; thioacetal linkage between the two bracketed Cys; C-terminal amide
# B2: HOOC-(CH2)18-CO-(γGlu)-EKEKEKG-PEG24-EKPRSS[CFGKRIDRIGHYSGLGC]PSFRHSGSPSSGAPPPSG-NH2 (peptide)
# peptide: B1 peptide
# modifications: N-terminus acylated with HOOC-(CH2)18-CO-(γGlu)-; PEG24 after EKEKEKG; thioacetal linkage between the two bracketed Cys; C-terminal amide
# B3: HOOC-(CH2)18-CO-(γGlu)-EKEKEKG-(AEEA)8-EKPRSS[CFGKRIDRIGHYSGLGC]PSFRHSGSPSSGAPPPSG-NH2 (peptide)
# peptide: B1 peptide
# modifications: N-terminus acylated with HOOC-(CH2)18-CO-(γGlu)-; (AEEA)8 after EKEKEKG; thioacetal linkage between the two bracketed Cys; C-terminal amide
# B4: HOOC-(CH2)18-CO-(γGlu)-EKEKEKG-(AEEA)6-S-4Pal-RRSS[CFGKRIDRIGHYSGLGC]PSFRHGSGSPSSGAPPPSG-NH2 (peptide)
# peptide: SXRRSSCFGKRIDRIGHYSGLGCPSFRHGSGSPSSGAPPPSG
# modifications: N-terminus acylated with HOOC-(CH2)18-CO-(γGlu)-; (AEEA)6 after EKEKEKG; 4Pal; thioacetal linkage between the two bracketed Cys; C-terminal amide
# B5: HOOC-(CH2)18-CO-(γGlu)-EKEKEKG-(AEEA)6-S-4Pal-RRSS[CFGKRIDRIGHYSGLGC]PSFRHGGKSSGAPPPS-NH2 (peptide)
# peptide: SXRRSSCFGKRIDRIGHYSGLGCPSFRHGGKSSGAPPPS
# modifications: N-terminus acylated with HOOC-(CH2)18-CO-(γGlu)-; (AEEA)6 after EKEKEKG; 4Pal; thioacetal linkage between the two bracketed Cys; C-terminal amide
# B6: HOOC-(CH2)18-CO-(γGlu)-EKEKEKG-(AEEA)8-S-4Pal-RRSS[CFGKRIDRIGHYSGLGC]PSFRHGSPSSGAPPPS-NH2 (peptide)
# peptide: B5 peptide with G30S, K31P
# modifications: N-terminus acylated with HOOC-(CH2)18-CO-(γGlu)-; (AEEA)8 after EKEKEKG; 4Pal; thioacetal linkage between the two bracketed Cys; C-terminal amide
# B7: HOOC-(CH2)18-CO-(γGlu)-EKEKEKG-PEG24-S-4Pal-RRSS[CFGKRIDRIGHYSGLGC]PSFRHGGKSSGAPPPS-NH2 (peptide)
# peptide: B5 peptide
# modifications: N-terminus acylated with HOOC-(CH2)18-CO-(γGlu)-; PEG24 after EKEKEKG; 4Pal; thioacetal linkage between the two bracketed Cys; C-terminal amide
# B8: HOOC-(CH2)18-CO-(γGlu)-EKEKEKG-(AEEA)6-S-4Pal-RRSS[CFGKRIDRIGHYSGLGC]PSFRHGSPSSGAPPPS-NH2 (peptide)
# peptide: B5 peptide with G30S, K31P
# modifications: N-terminus acylated with HOOC-(CH2)18-CO-(γGlu)-; (AEEA)6 after EKEKEKG; 4Pal; thioacetal linkage between the two bracketed Cys; C-terminal amide
# B9: HOOC-(CH2)18-CO-(γGlu)-EKEKEKG-PEG24-S-4Pal-RRSS[CFGKRIDRIGHQSGLGC]PSFRHGGKSSGAPPPS-NH2 (peptide)
# peptide: B5 peptide with Y18Q
# modifications: N-terminus acylated with HOOC-(CH2)18-CO-(γGlu)-; PEG24 after EKEKEKG; 4Pal; thioacetal linkage between the two bracketed Cys; C-terminal amide
# B10: HOOC-(CH2)18-CO-(γGlu)-EKEKEKG-PEG24-S-4Pal-RRSS[CFGKRIDRIGHYSGLGC]PSFRHGSPSSGAPPPS-NH2 (peptide)
# peptide: B5 peptide with G30S, K31P
# modifications: N-terminus acylated with HOOC-(CH2)18-CO-(γGlu)-; PEG24 after EKEKEKG; 4Pal; thioacetal linkage between the two bracketed Cys; C-terminal amide
# B11: HOOC-(CH2)18-CO-(γGlu)-EKEKEKG-(AEEA)6-S-4Pal-βAla-RSS[CFGGRIDRIGHYSGLGC]PSFRHGSPSSGAPPPS-NH2 (peptide)
# peptide: B5 peptide with R3X, K10G, G30S, K31P
# modifications: N-terminus acylated with HOOC-(CH2)18-CO-(γGlu)-; (AEEA)6 after EKEKEKG; 4Pal; βAla; thioacetal linkage between the two bracketed Cys; C-terminal amide
# Molecular target: T1, rat NPRA
# Assay: cell-based or functional assay
Binder,"cGMP Assay (EC50, pM) w/BSA, rNPRA","cGMP Assay (EC50, pM) w/Casein, rNPRA"
B1,205000 pM,3830 pM
B2,74300 pM,4510 pM
B3,88500 pM,3760 pM
B4,200000 pM,6040 pM
{C20 diacid-γGlu}-EKEKEKGEK[βAla]RSSCFGKRIDRIGHYSGLGCPSFRHGSPSSGAPPPS-NH2 (bridge 14-30 via thioacetal) [HOOC-(CH2)18-CO-(γGlu)-EKEKEKGEK-βAla-RSS[CFGKRIDRIGHYSGLGC]PSFRHGSPSSGAPPPS-NH2],138000 pM,1340 pM
B5,312000 pM,2630 pM
B6,149000 pM,3780 pM
B7,89100 pM,5320 pM
B8,149000 pM,6360 pM
B9,276000 pM,16800 pM
B10,100000 pM,5650 pM

# Molecular target: T2, human NPRA
# Assay: cell-based or functional assay
Binder,"cGMP Assay (EC50, pM) w/BSA, hNPRA","cGMP Assay (EC50, pM) w/Casein, hNPRA"
B1,8970 pM,745 pM
B2,3980 pM,656 pM
B3,6370 pM,1090 pM
B4,9170 pM,922 pM
{C20 diacid-γGlu}-EKEKEKGEK[βAla]RSSCFGKRIDRIGHYSGLGCPSFRHGSPSSGAPPPS-NH2 (bridge 14-30 via thioacetal) [HOOC-(CH2)18-CO-(γGlu)-EKEKEKGEK-βAla-RSS[CFGKRIDRIGHYSGLGC]PSFRHGSPSSGAPPPS-NH2],11600 pM,282 pM
B5,4470 pM,527 pM
B6,3770 pM,646 pM
B7,2210 pM,580 pM
B8,6020 pM,621 pM
B11,–,1530 pM
B9,2560 pM,488 pM
B10,2830 pM,726 pM
